Source: paper PMC7791120 (2021)

Target: T1, purified TRIB2 protein (ab186094, Abcam) (Homo sapiens (Human), UniProt Q92519)
T1 chain: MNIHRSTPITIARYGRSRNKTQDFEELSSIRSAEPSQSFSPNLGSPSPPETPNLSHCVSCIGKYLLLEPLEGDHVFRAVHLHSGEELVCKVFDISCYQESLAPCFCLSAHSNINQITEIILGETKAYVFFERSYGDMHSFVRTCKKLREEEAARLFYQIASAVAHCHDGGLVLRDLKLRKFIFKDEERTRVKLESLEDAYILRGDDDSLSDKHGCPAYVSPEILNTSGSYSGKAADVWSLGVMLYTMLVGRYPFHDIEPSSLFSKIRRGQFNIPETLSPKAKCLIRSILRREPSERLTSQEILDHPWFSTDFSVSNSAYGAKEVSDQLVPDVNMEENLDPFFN
Test: in vitro reciprocal co-IP

binding result: binds
B1: purified PCBP2 protein (H00005094-P01, Abnova) (protein)
chain: MDTGVIEGGLNVTLTIRLLMHGKEVGSIIGKKGESVKKMREESGARINISEGNCPERIITLAGPTNAIFKAFAMIIDKLEEDISSSMTNSTAASRPPVTLRLVVPASQCGSLIGKGGCKIKEIRESTGAQVQVAGDMLPNSTERAITIAGIPQSIIECVKQICVVMLETLSQSPPKGVTIPYRPKPSSSPVIFAGGQDRYSTGSDSASFPHTTPSMCLNPDLEGPPLEAYTIQGQYAIPQPDLTKLHQLAMQQSHFPMTHGNTGFSGIESSSPEVKGYWGLDASAQTTSHELTIPNDLIGCIIGRQGAKINEIRQMSGAQIKIANPVEGSTDRQVTITGSAASISLAQYLINVRLSSETGGMGSS
